Experimental data published in the supplement of paper PMC9876800.

Tested on: peptide library, one residue held at a place counted from the S/T acceptor
Test: relative phosphorylation of the sub-library (ratio to the mean residue at this position); human; higher = residue favoured
Outline: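 Relative sub-library phosphorylation is a ratio to the mean residue at the same position. Purified recombinant kinases were incubated under kinase-specific conditions with biotinylated degenerate peptide sub-libraries, each fixing one residue at one position around a central Ser/Thr, using 50 μM peptide and 50 μM ATP spiked with γ-32P-ATP for 90 min. Spots captured on streptavidin membranes were phosphorimaged and quantified by densitometry.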

CAMK2D, construct: Full length, sequence (Q13557 whole entry, looked up): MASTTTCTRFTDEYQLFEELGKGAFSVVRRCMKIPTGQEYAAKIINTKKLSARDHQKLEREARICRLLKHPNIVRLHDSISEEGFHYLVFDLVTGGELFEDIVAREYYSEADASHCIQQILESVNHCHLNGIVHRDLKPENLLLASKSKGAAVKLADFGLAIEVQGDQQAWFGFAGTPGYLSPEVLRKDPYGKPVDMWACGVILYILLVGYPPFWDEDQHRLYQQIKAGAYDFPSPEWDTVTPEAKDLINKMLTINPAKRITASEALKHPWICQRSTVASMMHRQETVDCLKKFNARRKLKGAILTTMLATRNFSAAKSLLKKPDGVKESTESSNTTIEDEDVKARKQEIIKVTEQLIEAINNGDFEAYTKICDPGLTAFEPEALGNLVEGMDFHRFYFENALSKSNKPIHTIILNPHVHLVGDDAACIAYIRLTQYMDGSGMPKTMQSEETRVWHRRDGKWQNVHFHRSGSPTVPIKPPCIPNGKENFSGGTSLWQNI
CAMK1, construct: Full length, sequence (Q14012 whole entry, looked up): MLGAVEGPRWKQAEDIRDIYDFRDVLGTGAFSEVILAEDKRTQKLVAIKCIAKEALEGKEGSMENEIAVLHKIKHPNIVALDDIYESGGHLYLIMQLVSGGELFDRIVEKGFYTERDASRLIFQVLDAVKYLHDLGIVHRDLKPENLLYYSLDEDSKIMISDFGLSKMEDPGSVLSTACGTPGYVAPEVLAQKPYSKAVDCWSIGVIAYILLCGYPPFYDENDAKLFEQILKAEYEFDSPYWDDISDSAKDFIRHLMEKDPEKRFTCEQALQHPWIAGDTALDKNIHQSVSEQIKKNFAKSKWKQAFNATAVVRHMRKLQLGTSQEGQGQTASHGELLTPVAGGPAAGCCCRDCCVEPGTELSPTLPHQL
CDK10, construct: Full length, sequence (Q15131 whole entry, looked up): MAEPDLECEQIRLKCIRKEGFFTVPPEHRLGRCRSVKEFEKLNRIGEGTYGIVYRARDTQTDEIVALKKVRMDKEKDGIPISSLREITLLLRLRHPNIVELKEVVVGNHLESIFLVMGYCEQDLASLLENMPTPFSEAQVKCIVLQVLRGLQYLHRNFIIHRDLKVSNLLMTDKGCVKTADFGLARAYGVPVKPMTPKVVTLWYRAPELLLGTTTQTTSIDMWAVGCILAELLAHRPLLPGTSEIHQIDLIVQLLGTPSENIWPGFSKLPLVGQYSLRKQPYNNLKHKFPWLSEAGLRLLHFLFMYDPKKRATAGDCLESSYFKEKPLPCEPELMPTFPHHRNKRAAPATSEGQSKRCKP
AURKB, construct: Full length, sequence (Q96GD4 whole entry, looked up): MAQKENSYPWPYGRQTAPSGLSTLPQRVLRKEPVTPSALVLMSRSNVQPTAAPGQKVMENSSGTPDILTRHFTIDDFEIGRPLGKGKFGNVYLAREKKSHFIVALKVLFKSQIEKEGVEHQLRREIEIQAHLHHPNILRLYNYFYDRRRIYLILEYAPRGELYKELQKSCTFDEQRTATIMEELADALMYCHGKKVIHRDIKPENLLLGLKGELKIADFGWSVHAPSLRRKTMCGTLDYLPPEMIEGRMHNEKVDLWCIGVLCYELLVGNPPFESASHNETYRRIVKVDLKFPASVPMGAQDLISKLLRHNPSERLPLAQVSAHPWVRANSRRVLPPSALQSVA

CAMK2D, construct: Full length (from UniProt Q13557)
relative phosphorylation
Conditions | at +1 | at +2 | at +3 | at +4 | at -1 | at -2 | at -3 | at -4 | at -5
A fixed | 0.696 | 0.903 | 1.09 | 1.13 | 1.05 | 1.26 | 0.926 | 1.07 | 0.966
D fixed | 0.461 | 3.3 | 1.4 | 1.45 | 0.967 | 0.476 | 0.264 | 0.439 | 0.415
E fixed | 0.719 | 2.31 | 1.46 | 1.41 | 0.674 | 0.625 | 0.316 | 0.691 | 0.378
F fixed | 2.39 | 0.604 | 0.852 | 0.726 | 0.811 | 0.914 | 0.887 | 1.22 | 1.38
G fixed | 0.609 | 1.06 | 1.51 | 1.38 | 1.17 | 1.41 | 0.814 | 1.03 | 0.827
H fixed | 0.719 | 1.03 | 1.17 | 0.962 | 1.08 | 0.894 | 1.05 | 0.86 | 0.922
I fixed | 1.93 | 0.599 | 0.699 | 0.705 | 0.699 | 0.547 | 0.575 | 0.946 | 1.11
K fixed | 0.476 | 0.569 | 0.669 | 0.688 | 1.21 | 0.858 | 1.68 | 0.967 | 0.794
L fixed | 1.44 | 0.553 | 0.894 | 0.686 | 0.893 | 0.62 | 0.626 | 1.03 | 1.7
M fixed | 1.72 | 0.605 | 0.793 | 0.711 | 1.15 | 1.12 | 0.782 | 1.2 | 1.22
N fixed | 0.705 | 1.17 | 0.981 | 1.03 | 1.23 | 0.956 | 0.689 | 0.707 | 0.597
P fixed | 0.278 | 0.626 | 1.09 | 1.81 | 1.55 | 0.45 | 0.909 | 1.02 | 1.12
Q fixed | 1.17 | 0.957 | 1.03 | 1 | 1.16 | 2.51 | 0.973 | 0.875 | 0.708
R fixed | 0.5 | 0.716 | 0.61 | 0.549 | 0.882 | 1.02 | 3.93 | 1.09 | 1.03
V fixed | 1.65 | 0.676 | 0.835 | 0.787 | 0.728 | 0.655 | 0.551 | 0.926 | 0.92
W fixed | 0.636 | 0.619 | 0.977 | 1.1 | 0.7 | 1.74 | 1.19 | 1.66 | 1.68
Y fixed | 0.9 | 0.702 | 0.963 | 0.88 | 1.05 | 0.949 | 0.844 | 1.27 | 1.24
pThr fixed | 1.02 | 1.01 | 1.39 | 2.4 | 0.353 | 0.348 | 0.448 | 0.653 | 0.605
pTyr fixed | 0.872 | 3.27 | 1.12 | 1.45 | 0.933 | 0.349 | 0.424 | 0.609 | 0.606

AURKB, construct: Full length (from UniProt Q96GD4)
relative phosphorylation
Conditions | at +1 | at +2 | at +3 | at +4 | at -1 | at -2 | at -3 | at -4 | at -5
A fixed | 0.803 | 0.959 | 0.784 | 0.784 | 0.651 | 0.28 | 0.727 | 1.01 | 1.08
D fixed | 0.673 | 0.507 | 0.523 | 0.986 | 0.489 | 0.176 | 0.485 | 0.629 | 0.734
E fixed | 0.611 | 0.427 | 0.498 | 0.727 | 0.433 | 0.183 | 0.422 | 0.653 | 0.511
F fixed | 1.34 | 1.05 | 1.35 | 0.856 | 0.678 | 0.247 | 0.633 | 0.724 | 0.867
G fixed | 1.11 | 1.59 | 1.3 | 1.06 | 0.553 | 0.381 | 0.954 | 1.17 | 1.24
H fixed | 0.933 | 1.6 | 1.51 | 1.09 | 0.971 | 0.542 | 1.02 | 1.03 | 1.06
I fixed | 1.21 | 0.911 | 0.957 | 0.869 | 0.735 | 0.217 | 0.553 | 0.709 | 0.855
K fixed | 0.78 | 0.77 | 0.955 | 1.13 | 2.06 | 2.28 | 2.2 | 1.8 | 1.81
L fixed | 1.49 | 0.948 | 1.14 | 0.989 | 1.23 | 0.25 | 0.554 | 0.738 | 0.779
M fixed | 1.59 | 0.864 | 0.901 | 1.06 | 0.97 | 0.243 | 0.661 | 0.829 | 0.786
N fixed | 1.33 | 1.04 | 0.981 | 1.08 | 0.788 | 0.377 | 0.784 | 0.844 | 0.966
P fixed | 0.212 | 1.07 | 1.1 | 1.32 | 0.917 | 0.327 | 0.9 | 0.953 | 0.985
Q fixed | 1.18 | 1.13 | 0.923 | 1.32 | 1.08 | 0.528 | 0.775 | 0.849 | 0.911
R fixed | 1.05 | 0.972 | 0.968 | 1.01 | 2.98 | 10.2 | 4.37 | 2.72 | 1.9
V fixed | 0.82 | 0.897 | 0.844 | 0.823 | 0.827 | 0.207 | 0.564 | 0.687 | 0.762
W fixed | 0.932 | 1.05 | 1.23 | 1.17 | 0.605 | 0.287 | 0.735 | 0.855 | 0.931
Y fixed | 0.922 | 1.22 | 1.05 | 0.734 | 1.04 | 0.276 | 0.665 | 0.798 | 0.831
pThr fixed | 0.88 | 0.581 | 0.555 | 1.08 | 0.413 | 0.314 | 0.591 | 0.691 | 0.716
pTyr fixed | 0.59 | 0.435 | 0.847 | 0.784 | 0.461 | 0.272 | 0.62 | 0.556 | 0.66

CDK10, construct: Full length (from UniProt Q15131)
relative phosphorylation
Conditions | at +1 | at +2 | at +3 | at +4 | at -1 | at -2 | at -3 | at -4 | at -5
A fixed | 0.232 | 0.641 | 0.676 | 0.671 | 0.931 | 0.896 | 0.838 | 0.851 | 0.845
D fixed | 0.124 | 0.342 | 0.305 | 0.505 | 0.378 | 0.311 | 0.302 | 0.355 | 0.357
E fixed | 0.115 | 0.297 | 0.26 | 0.337 | 0.231 | 0.244 | 0.276 | 0.361 | 0.293
F fixed | 0.303 | 0.554 | 0.721 | 0.643 | 0.669 | 0.667 | 0.635 | 0.782 | 1.02
G fixed | 1.3 | 0.952 | 0.795 | 1.09 | 1.56 | 0.715 | 1.01 | 0.955 | 1.05
H fixed | 0.235 | 1.22 | 1.23 | 1.37 | 0.915 | 0.821 | 1.11 | 1.13 | 1.08
I fixed | 0.282 | 0.598 | 0.67 | 0.655 | 0.284 | 0.724 | 0.722 | 0.652 | 0.713
K fixed | 0.397 | 3.05 | 1.66 | 2.1 | 2.08 | 1.64 | 1.66 | 2.23 | 2.24
L fixed | 0.296 | 0.683 | 0.66 | 0.661 | 0.787 | 1.15 | 0.78 | 0.658 | 0.78
M fixed | 0.32 | 0.572 | 0.618 | 0.638 | 1.01 | 1.06 | 0.776 | 0.831 | 0.757
N fixed | 0.247 | 0.864 | 0.852 | 0.868 | 0.786 | 0.753 | 0.749 | 0.841 | 0.741
P fixed | 11.8 | 0.782 | 1.13 | 1.02 | 1.58 | 2.09 | 0.88 | 1.08 | 0.97
Q fixed | 0.294 | 0.967 | 0.874 | 1.24 | 0.859 | 0.958 | 0.874 | 0.973 | 0.911
R fixed | 0.405 | 3.58 | 4.52 | 2.61 | 2.65 | 2.65 | 3.91 | 2.3 | 2.25
V fixed | 0.245 | 0.515 | 0.716 | 0.691 | 0.408 | 0.731 | 0.625 | 0.628 | 0.605
W fixed | 0.241 | 0.541 | 0.621 | 0.967 | 1.11 | 0.872 | 0.997 | 1.46 | 1.26
Y fixed | 0.209 | 0.843 | 0.686 | 0.938 | 0.77 | 0.727 | 0.86 | 0.918 | 1.12
pThr fixed | 0.506 | 0.924 | 0.88 | 0.879 | 0.602 | 0.737 | 0.853 | 0.941 | 0.789
pTyr fixed | 0.461 | 0.367 | 0.508 | 0.431 | 0.375 | 0.388 | 0.538 | 0.559 | 0.537

CAMK1, construct: Full length (from UniProt Q14012)
relative phosphorylation
Conditions | at +1 | at +2 | at +3 | at +4 | at -1 | at -2 | at -3 | at -4 | at -5
A fixed | 0.669 | 0.817 | 0.709 | 0.598 | 0.804 | 1.02 | 0.635 | 0.826 | 0.346
D fixed | 0.448 | 0.609 | 1.01 | 0.758 | 0.925 | 0.25 | 0.157 | 0.285 | 0.205
E fixed | 0.497 | 0.508 | 0.699 | 0.628 | 0.483 | 0.322 | 0.178 | 0.542 | 0.189
F fixed | 2.41 | 1.16 | 1.44 | 1.44 | 0.637 | 0.398 | 0.201 | 0.833 | 1.56
G fixed | 0.623 | 0.554 | 0.911 | 0.897 | 0.773 | 0.607 | 0.218 | 0.614 | 0.402
H fixed | 0.834 | 1.26 | 1.23 | 0.911 | 1.17 | 0.757 | 0.603 | 0.942 | 0.527
I fixed | 0.715 | 1.06 | 0.751 | 1.42 | 0.49 | 0.413 | 0.165 | 1.03 | 1.49
K fixed | 1.35 | 1.13 | 0.881 | 0.821 | 1.87 | 2.03 | 2.38 | 2.62 | 0.663
L fixed | 0.767 | 1.16 | 0.962 | 1.82 | 0.965 | 0.54 | 0.188 | 1.12 | 2.97
M fixed | 1.21 | 0.986 | 0.938 | 1.37 | 1.01 | 1.33 | 0.252 | 1.13 | 1.39
N fixed | 1.13 | 1.18 | 1.64 | 1.07 | 2.03 | 0.856 | 0.369 | 0.802 | 0.394
P fixed | 0.263 | 0.598 | 0.75 | 1.21 | 1.31 | 0.245 | 0.274 | 0.575 | 1.54
Q fixed | 1.44 | 1 | 1.14 | 1.01 | 1.23 | 2.24 | 0.784 | 1.11 | 0.976
R fixed | 1.96 | 1.42 | 0.961 | 0.679 | 1.59 | 4.18 | 9.87 | 2.11 | 1.8
V fixed | 0.758 | 0.857 | 0.663 | 0.732 | 0.504 | 0.469 | 0.177 | 1.01 | 0.676
W fixed | 0.932 | 1.36 | 1.38 | 0.911 | 0.45 | 0.842 | 0.325 | 0.633 | 0.924
Y fixed | 0.99 | 1.34 | 0.935 | 0.716 | 0.753 | 0.488 | 0.227 | 0.827 | 0.946
pThr fixed | 0.649 | 0.596 | 0.601 | 0.682 | 0.288 | 0.264 | 0.201 | 0.389 | 0.248
pTyr fixed | 0.654 | 1.94 | 0.848 | 0.605 | 0.604 | 0.361 | 0.473 | 0.445 | 0.461
